The values below come from US20220348681A1, “FUSED PROTEIN OF AN ANTIBODY WHICH RECOGNIZES CANCER-CELLS AND A STREPTAVIDIN MUTANT” (THE UNIVERSITY OF TOKYO, priority 2021, published 2022).

This assay in a line: Interaction analysis between CEA-V2122-del5 and modified biotin using Biacore T200 (single-cycle kinetics, bivalent analysis mode). In kind it is binding. As to conditions: analyte Psyche J-iodine. The procedure: The interaction between CEA-V2122-del5 and a modified biotin was analyzed using Biacore T200. The Psyche J-iodine described in Production Example 1 was used herein as a modified biotin.
The analysis method was specifically as follows. That is, an amine-coupling kit was used, a target value was set to be 3000 RU, and the purified CEA-V2122-del5 was immobilized on Sensor Chip CM5. With regard to the concentrations of the analytes, 2.5E−09 M was two-fold diluted, and 5 types of two-fold serial dilutions including 2.5E-09 M were prepared and used in the measurement. Regarding interaction analysis, data were obtained by single-cycle kinetics analysis. Using Biacore T200 Evaluation Software, version 2.0, the obtained data were subjected to curve fitting in a bivalent analysis mode, and the following values were obtained: ka1=6.3E+03, and kd1=8.0E−06.
For orientation: Surface plasmon resonance follows binding to a sensor surface in real time, without labels.

[1] abbreviates: CEA-V2122-del5 immobilized on Sensor Chip CM5, 5 two-fold serial dilutions from 2.5E-09 M, curve fitting in bivalent analysis mode.

B1: CEA-V2122-del5: fusion of scFv-type anti-CEACAM5 antibody and mutant streptavidin V2122 lacking 11 C-terminal amino acids including 6xHis tag (SEQ ID NO: 18) (protein)
chain: MKYLLPTAAAGLLLLAAQPAMAQVKLEQSGAEVVKPGASVKLSCKASGFNIKDSYMHWLRQGPGQRLEWIGWIDPENGDTEYAPKFQGKATFTTDTSANTAYLGLSSLRPEDTAVYYCNEGTPTGPYYFDYWGQGTLVTVSSGGGGSGGGGSGGGGSENVLTQSPSSMSVSVGDRVNIACSASSSVPYMHWLQQKPGKSPKLLIYLTSNLASGVPSRFSGSGSGTDYSLTISSVQPEDAATYYCQQRSSYPLTFGGGTKLEIKGGGGSGGGGAEAGITGTWSDQLGDTFIVTAGADGALTGTYENAVGGAESRYVLTGRYDSAPATDGSGTALGWTVAWKNNSKNAHSATTWSGQYVGGADAKINTQWLLTSGTTNANAWKSTLVGHDTFTKVK
Under setting [1], B1 yielded a ka1 of 6.3E+03 and a kd1 of 8.0E−06. Besides, the “KD=kd1/ka1” value (evaluation value from the bivalent analysis) is listed as 1.3E−09.
